Results on one molecule are retold here after PMC3298473, “Effects of partner proteins on BCA2 RING ligase activity” (BMC Cancer, 2012).

For experiment [1], the target named is T1, Recombinant Flag-BCA2, wild type, purified (human, UniProt Q9Y4L5 1-304).
T1 construct: BCA2, a 304 amino acid protein; also called Purified recombinant wild-type BCA2; source: recombinant, purified
Nature of the experiment: pull-down; purified recombinant Flag-BCA2 (wild type or mutants) incubated with sepharose-immobilised GST control or GST-14-3-3σ from bacterial cell lysates; immunoblot. The following applies: both partners purified.

The target of experiment [2] is T2, Recombinant Flag-BCA2 RING mutant (C228/231A), purified (human, UniProt Q9Y4L5 1-304, C228/231A | C228/231A).
T2 construct: BCA2, a 304 amino acid protein, with C228A and C231A in the RING domain (ligase-dead); also called RING mt; source: recombinant, purified
The experiment is described as above. The following applies: both partners purified.

T2 sequence (Q9Y4L5 other isoform, or with tags, fused parts or gaps C228/231A | C228/231A | C228/231A | C228/231A | mutant): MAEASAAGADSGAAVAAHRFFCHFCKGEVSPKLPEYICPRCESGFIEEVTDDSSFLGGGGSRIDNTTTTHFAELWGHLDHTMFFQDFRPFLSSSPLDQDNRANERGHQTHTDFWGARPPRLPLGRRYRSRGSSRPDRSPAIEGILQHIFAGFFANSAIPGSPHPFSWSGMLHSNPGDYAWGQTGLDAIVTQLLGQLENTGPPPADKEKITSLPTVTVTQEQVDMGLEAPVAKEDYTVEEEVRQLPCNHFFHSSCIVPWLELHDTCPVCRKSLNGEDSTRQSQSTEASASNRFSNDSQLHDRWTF
T1 sequence (Q9Y4L5 whole entry): as the sequence (Q9Y4L5 other isoform, or with tags, fused parts or gaps C228/231A | C228/231A | C228/231A | C228/231A | mutant) above, with A228C, A231C counted along it

B1: GST-tagged 14-3-3σ (natural protein, human, UniProt P31947 1-248, looked up)
chain: MERASLIQKAKLAEQAERYEDMAAFMKGAVEKGEELSCEERNLLSVAYKNVVGGQRAAWRVLSSIEQKSNEEGSEEKGPEVREYREKVETELQGVCDTVLGLLDSHLIKEAGDAESRVFYLKMKGDYYRYLAEVATGDDKKRIIDSARSAYQEAMDISKKEMPPTNPIRLGLALNFSVFHYEIANSPEEAISLAKTTFDEAMADLHTLSEDSYKDSTLIMQLLRDNLTLWTADNAGEEGGEAPQEPQS
notes: 14-3-3σ; the GST construct is not described in the methods; also called GST-14-3-3σ; source: bacterial cell lysates, immobilised on sepharose
For B1, the binding result in experiment [1] and in experiment [2] was “binds” each time.
